Laboratory results published in patent US20260116987A1 (Gilead, published 2026).

T1: Human CCR4 expressed on CHO-S cells (human, UniProt P51679 1-360)
T1 construct: whole, on cells; also called CCR4-expressing CHO-S cells
T1 sequence (looked up): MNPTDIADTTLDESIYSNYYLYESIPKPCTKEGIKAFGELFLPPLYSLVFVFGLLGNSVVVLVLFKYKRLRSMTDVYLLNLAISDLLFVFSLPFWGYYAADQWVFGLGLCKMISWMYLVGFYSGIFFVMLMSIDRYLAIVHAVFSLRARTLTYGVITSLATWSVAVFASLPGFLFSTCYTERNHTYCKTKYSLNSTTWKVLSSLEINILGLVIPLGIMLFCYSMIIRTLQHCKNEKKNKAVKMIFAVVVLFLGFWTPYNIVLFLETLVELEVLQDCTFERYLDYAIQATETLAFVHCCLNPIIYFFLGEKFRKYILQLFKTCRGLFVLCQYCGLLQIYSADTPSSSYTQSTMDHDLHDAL

B1: 7B16.002 (CDR H3 alanine scan variant of 7-B16) (antibody, human IgG1, kappa, V domains shown)
VH: EVQLVESGGGLVQPKGSLKLSCAASGFTFNTYAMNWVRQAPGKGLEWVARIRSKSNNYATYYADSVKDRFTISRDDSQSMLYLQMNNLKTEDTAMYYCARGLLRYRFFDVWGAGTTVTVSS
VL: DIVMTQAEPSVPVTPGESISISCRSSKSLLHSNGNTYLYWFLQRPGQSPQLLIYRMSNLASGVPDRFSGSGSGTAFTLRISRVEAEDVGVYYCMQHLEYPFTFGGGTKLEIKR
B2: Humanized 7-B16.001 (antibody, human IgG1, kappa, V domains shown)
VH: EVQLVESGGGLVQPGGSLKLSCAASGFTFNTYAMNWVRQASGKGLEWVGRIRSKSNNYATYYADSVKDRFTISRDDSKNTAYLQMNSLKTEDTAVYYCVRGLLRYRFFDVWGQGTTVTVSS
VL: DIVMTQSPLSLPVTPGEPASISCRSSKSLLHSNGNTYLYWFLQKPGQSPQLLIYRMSNLASGVPDRFSGSGSGTDFTLKISRVEAEDVGVYYCMQHLEYPFTFGGGTKVEIKR
notes: Humanized
B3: 7B16.008 (CDR H3 alanine scan variant of 7-B16) (antibody, human IgG1, kappa, V domains shown)
VH: EVQLVESGGGLVQPKGSLKLSCAASGFTFNTYAMNWVRQAPGKGLEWVARIRSKSNNYATYYADSVKDRFTISRDDSQSMLYLQMNNLKTEDTAMYYCVRGLLRARFFDVWGAGTTVTVSS
VL: DIVMTQAEPSVPVTPGESISISCRSSKSLLHSNGNTYLYWFLQRPGQSPQLLIYRMSNLASGVPDRFSGSGSGTAFTLRISRVEAEDVGVYYCMQHLEYPFTFGGGTKLEIKR
B4: 7B16.005 (CDR H3 alanine scan variant of 7-B16) (antibody, human IgG1, kappa, V domains shown)
VH: EVQLVESGGGLVQPKGSLKLSCAASGFTFNTYAMNWVRQAPGKGLEWVARIRSKSNNYATYYADSVKDRFTISRDDSQSMLYLQMNNLKTEDTAMYYCVRGALRYRFFDVWGAGTTVTVSS
VL: DIVMTQAEPSVPVTPGESISISCRSSKSLLHSNGNTYLYWFLQRPGQSPQLLIYRMSNLASGVPDRFSGSGSGTAFTLRISRVEAEDVGVYYCMQHLEYPFTFGGGTKLEIKR
B5: Humanized 7-B16.033 (antibody, human IgG1, kappa, V domains shown)
VH: EVQLVESGGGLVQPGRSLRLSCTASGFTFATYAMNWVRQAPGKGLEWVARIRSKSNNYATYYADSVKDRFTISRDDSKSILYLQMNSLKTEDTAVYYCVRGLLRYRFFDVWGQGTTVTVSS
VL: DIVMTQSPLSLPVTPGEPASISCRSSKSLLHSNGNTYLYWFLQKPGQSPQLLIYRMSNLASGVPDRFSGSGSGTDFTLKISRVEAEDVGVYYCMQHLEYPFTFGGGTKVEIKR
notes: Humanized
B6: 7B16.006 (CDR H3 alanine scan variant of 7-B16) (antibody, human IgG1, kappa, V domains shown)
VH: EVQLVESGGGLVQPKGSLKLSCAASGFTFNTYAMNWVRQAPGKGLEWVARIRSKSNNYATYYADSVKDRFTISRDDSQSMLYLQMNNLKTEDTAMYYCVRGLARYRFFDVWGAGTTVTVSS
VL: DIVMTQAEPSVPVTPGESISISCRSSKSLLHSNGNTYLYWFLQRPGQSPQLLIYRMSNLASGVPDRFSGSGSGTAFTLRISRVEAEDVGVYYCMQHLEYPFTFGGGTKLEIKR
B7: 7B16.004 (CDR H3 alanine scan variant of 7-B16) (antibody, human IgG1, kappa, V domains shown)
VH: EVQLVESGGGLVQPKGSLKLSCAASGFTFNTYAMNWVRQAPGKGLEWVARIRSKSNNYATYYADSVKDRFTISRDDSQSMLYLQMNNLKTEDTAMYYCVRALLRYRFFDVWGAGTTVTVSS
VL: DIVMTQAEPSVPVTPGESISISCRSSKSLLHSNGNTYLYWFLQRPGQSPQLLIYRMSNLASGVPDRFSGSGSGTAFTLRISRVEAEDVGVYYCMQHLEYPFTFGGGTKLEIKR
B8: 7B16.009 (CDR H3 alanine scan variant of 7-B16) (antibody, human IgG1, kappa, V domains shown)
VH: EVQLVESGGGLVQPKGSLKLSCAASGFTFNTYAMNWVRQAPGKGLEWVARIRSKSNNYATYYADSVKDRFTISRDDSQSMLYLQMNNLKTEDTAMYYCVRGLLRYAFFDVWGAGTTVTVSS
VL: DIVMTQAEPSVPVTPGESISISCRSSKSLLHSNGNTYLYWFLQRPGQSPQLLIYRMSNLASGVPDRFSGSGSGTAFTLRISRVEAEDVGVYYCMQHLEYPFTFGGGTKLEIKR
B9: 7B16.010 (CDR H3 alanine scan variant of 7-B16) (antibody, human IgG1, kappa, V domains shown)
VH: EVQLVESGGGLVQPKGSLKLSCAASGFTFNTYAMNWVRQAPGKGLEWVARIRSKSNNYATYYADSVKDRFTISRDDSQSMLYLQMNNLKTEDTAMYYCVRGLLRYRAFDVWGAGTTVTVSS
VL: DIVMTQAEPSVPVTPGESISISCRSSKSLLHSNGNTYLYWFLQRPGQSPQLLIYRMSNLASGVPDRFSGSGSGTAFTLRISRVEAEDVGVYYCMQHLEYPFTFGGGTKLEIKR
B10: 7B16.013 (CDR H3 alanine scan variant of 7-B16) (antibody, human IgG1, kappa, V domains shown)
VH: EVQLVESGGGLVQPKGSLKLSCAASGFTFNTYAMNWVRQAPGKGLEWVARIRSKSNNYATYYADSVKDRFTISRDDSQSMLYLQMNNLKTEDTAMYYCVRGLLRYRFFDAWGAGTTVTVSS
VL: DIVMTQAEPSVPVTPGESISISCRSSKSLLHSNGNTYLYWFLQRPGQSPQLLIYRMSNLASGVPDRFSGSGSGTAFTLRISRVEAEDVGVYYCMQHLEYPFTFGGGTKLEIKR
B11: Humanized 1-K17.015 (antibody, human IgG1, kappa, V domains shown)
VH: EVQLVQSGAEVKKPGASVKVSCKASGYTFTSYNMHWVRQAPGQRLEWIGAIYPGQGDTSYNQKFKGRATLTADKSASTAYMELSSLRSEDTAVYYCARKGGTPFAYWGQGTLVTVSS
VL: DVVMTQSPLSLPVTLGQPASISCRSSQSLVHSNAQTYLYWYQQRPGQSPRLLIYKVSNRFSGVPDRFSGSGSGTDFTLKISRVEAEDVGVYFCSQSTHVPYTFGQGTKLEIKR
notes: Humanized with hotspot correction
B12: Humanized 1-K17.044 (antibody, human IgG1, kappa, V domains shown)
VH: EVQLVQSGAEVKKPGASVKVSCKASGYTFTSYNMHWVRQAPGQGLEWIGAIYPGAGDTSYNQKFKGRATLTADKSTSTAYMELSSLRSEDTAVYYCARKGGTPFAYWGQGTLVTVSS
VL: DVVMTQSPLSLPVTLGQPASISCRSSQSLVHSNAATYLYWYQQRPGQSPRLLIYKVSNRFSGVPDRFSGSGSGTDFTLKISRVEAEDVGVYFCSQSTHVPYTFGQGTKLEIKR
notes: as for B11

Experiments:
[1] = target: T2, Human CCR8 (C-C chemokine receptor type 8) expressed on CHO-S cells (human, UniProt P51685 1-355); test: cell-based or functional assay
[2] = target: CCR8-NT.MBP (CCR8 N-terminus peptide aa 1-35 fused with maltose binding protein); test: ForteBio Octet, antibody at 10 µg/ml captured on AHC biosensors, 300 nM CCR8-NT.MBP as analyte
From the text: (amino acids 406-440 of SEQ ID NO: 128), Amino acids 1-364 of SEQ ID NO: 128 represent the maltose binding protein.

[3] = target: T2, Human CCR8 (C-C chemokine receptor type …); test: flow cytometry, human CCR8-overexpressing against parental CHO-S cells
Protocol: The first category of variant (single substitution mutation in the CDR H3) included variants in which each amino acid residue of the heavy chain CDR 3 (i.e., , CDR H3) was iteratively substituted with an alanine residue.
CCR8 binding was determined using flow cytometry according to the same methods used in Example 4, Briefly, antibodies were screened for specific binding to human CCR8 by flow cytometry using human CCR8-overexpressing and parental CHO—S cell line. Antibodies specifically binding to human CCR8 were also tested for binding to CCR4 by flow cytometry.

[4] = target: T1, Human CCR4 expressed on CHO-S cells; test: flow cytometry
[5] = target: T2, Human CCR8 (C-C chemokine receptor type …); test: KinExA, on-cell affinity

T2 sequence (P51685 whole entry, the tested form may be a part): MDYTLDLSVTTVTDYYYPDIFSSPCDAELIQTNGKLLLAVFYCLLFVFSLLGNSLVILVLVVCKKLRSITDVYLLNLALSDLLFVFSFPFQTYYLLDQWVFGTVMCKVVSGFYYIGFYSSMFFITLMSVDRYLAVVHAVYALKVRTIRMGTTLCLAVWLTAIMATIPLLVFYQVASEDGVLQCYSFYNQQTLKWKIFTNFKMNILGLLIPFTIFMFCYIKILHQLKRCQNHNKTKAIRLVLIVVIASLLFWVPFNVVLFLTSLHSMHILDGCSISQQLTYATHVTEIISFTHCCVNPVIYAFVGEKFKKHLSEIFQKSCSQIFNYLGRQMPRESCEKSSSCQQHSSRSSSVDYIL

Binder | ADCC (Fold Induction) [1] [fold] | Octet (nm shift) [2] [nm] | Flow (fold over parent) [3] [fold] | binding result [4] | Kd [5] [nM] | koff [5] [s⁻¹] | kon [5] [M⁻¹ s⁻¹]
B1 | 22.9 | 0.469 | 8 | – | – | – | –
B2 | – | – | – | no binding | 0.0159 | 7.93e-05 | 4.99e+06
B3 | 24.8 | 0.436 | 9 | – | – | – | –
B4 | 20 | 0.296 | 9 | – | – | – | –
B5 | – | – | – | no binding | 0.0746 | 0.000391 | 5.25e+06
B6 | 14.1 | 0.22 | 8 | – | – | – | –
B7 | 19.5 | 0.221 | 6 | – | – | – | –
B8 | 19.8 | 0.303 | 10 | – | – | – | –
B9 | 1.36 | 0.155 | 4 | – | – | – | –
B10 | 25.9 | 0.383 | 9 | – | – | – | –
B11 | – | – | – | no binding | 0.0145 | 0.000142 | 9.78e+06
B12 | – | – | – | no binding | 0.00805 | 6.67e-05 | 8.29e+06
